Results taken from US20090239794A1, “HCV F PROTEIN AND USES THEREOF” (priority 2004, published 2009).
Where “and” joins values, the source holds several entries; their conditions need not be identical. Equal entries are not always repeated.

Test system: C57Bl/6 mice
Experiment: Protocol 1: ARFP immunization of mice, total anti-ARFP Ig ELISA
[1] = individual mice 31-45, 1st immunization (day 0), listed as ARFP
[2] = individual mice 31-45, 2nd immunization (day 13), listed as ARFP
[3] = individual mice 31-45, 3d immunization (day 35), listed as ARFP
[4] = individual mice 31-45, Sacrifice (day 53), listed as ARFP

Experimental: Plates were blocked for 2 h/4° C. with 200 μl per well of 5 mg/ml bovine serum albumin (BSA) in 100 mM NaHCO3 pH 8.6, and were washed 6 times with 10 mM tris base, 150 mM NaCl, 0.05% Tween-20 pH 7.4 (1×TBST). […] After 90 min, optical density was measured at 410 nm in a MR7000 spectrophotometer (Dynatec, Chantilly, Va.).
In a first set of experiments, induction of ARFP-specific humoral (i.e. antibody) immune responses was tested as follows.
Protocol 1. […] Ten 5-week old female C57Bl/6 mice were injected with 100 μl phosphate-buffered saline and were used as controls. An identical immunization procedure was repeated on day 13, and again on day 35. 200 μl of blood was obtained by maxillary bleeding prior to each immunization (days 0, 13, and 35). Mice were sacrificed by CO2 asphyxiation and bled by cardiac puncture on day 53. All blood samples were centrifuged and sera was collected and frozen at −80° C. until used. Total immunoglobulin (Ig) responses (IgA, IgM, and IgG) were tested by enzyme-linked immuno-sorbent assay (ELISA) as described in Example 1, except that alkaline phosphatase-conjugated anti-mouse polyvalent immunoglobulins (G, A, M) (A-0162, Sigma, St. Louis, Mo.) were used instead of alkaline phosphatase-conjugated monoclonal anti-human IgG (A-2064, Sigma). […] Optical density was measured at 410 nm (Table 4). […] The ELISA threshold value was set at 3 times the OD410 measured in the negative control with the highest readout (highlighted in Table 6).

B1: Fmut8Δ11: truncated recombinant HCV-1a F protein lacking the first 11 N-terminal residues shared with core; SEQ ID NO: 12; produced in E. coli (protein)
chain: PNVTPTVAHRTSSSRVAVRSLVEFTCCRAGALDWVCARRGRLPSGRNLEVDVSLSPRHVGPRAGPGLSPGTLGPSMAMRAADGRDGSCLPVALGLVGAPQTPGVGRAIWVRSSIPSRAASPTSWGTYRSSAPPLEALPGPWRMASGFWRTA
modifications: Hepatitis C virus
Q: Which results are given for B1?
A: ARFP-specific Ig titer, mean+/−standard deviation (before the 2nd immunization): 10.00+/−27.08; anti-ARFP Ig titer, mean+/−standard deviation (day 35): 1400+/−419.5; anti-ARFP Ig titer, mean+/−standard deviation (day 53): 1547+/−199.6; Titer (anti-ARFP Ig ELISA) (individual mice 31-45, 1st immunization (day 0)): 0; ELISA OD410, serum dilution 1/50 [1]: 0.211 and 0.209 and 0.199 and 0.218 and 0.323 and 0.278 and 0.229 and 0.166 and 0.236 and 0.243 and 0.247 and 0.208 and 0.206 and 0.205 and 0.217; ELISA OD410, serum dilution 1/100 [1]: 0.128 and 0.115 (2×) and 0.174 and 0.208 and 0.186 and 0.171 and 0.152 and 0.161 (2×) and 0.145 and 0.134 and 0.132 and 0.142 and 0.127; ELISA OD410, serum dilution 1/200 [1]: 0.123 and 0.150 and 0.128 and 0.136 (2×) and 0.114 and 0.111 and 0.121 and 0.113 (2×) and 0.104 and 0.117 and 0.164 and 0.144 and 0.140; ELISA OD410, serum dilution 1/400 [1]: 0.132 and 0.164 and 0.114 and 0.118 and 0.116 and 0.121 and 0.133 and 0.115 and 0.104 and 0.110 and 0.120 and 0.128 and 0.191 and 0.138 and 0.126; ELISA OD410, serum dilution 1/800 [1]: 0.119 and 0.138 and 0.113 and 0.118 and 0.115 (2×) and 0.117 and 0.128 and 0.108 and 0.103 and 0.105 and 0.123 and 0.134 and 0.137 and 0.114; ELISA OD410, serum dilution 1/1600 [1]: 0.138 and 0.122 and 0.109 (2×) and 0.110 and 0.116 and 0.124 and 0.108 and 0.106 and 0.107 and 0.105 and 0.119 and 0.129 and 0.127 and 0.114; ELISA OD410, serum dilution 1/50 [2]: 0.732 and 0.272 and 0.750 and 0.293 and 0.231 and 0.965 and 0.137 and 0.916 and 0.132 and 0.13 and 0.186 and 0.049 and 0.046 and 0.048 and 0.045; ELISA OD410, serum dilution 1/100 [2]: 0.306 and 0.117 and 0.197 and 0.157 and 0.138 and 0.890 and 0.113 and 0.742 and 0.112 and 0.116 and 0.105 and 0.045 and 0.053 and 0.048 and 0.046; ELISA OD410, serum dilution 1/200 [2]: 0.165 and 0.113 and 0.166 and 0.127 and 0.160 and 0.815 and 0.108 and 0.441 and 0.107 (2×) and 0.111 and 0.102 and 0.798 and 0.116 and 0.123; ELISA OD410, serum dilution 1/400 [2]: 0.147 and 0.110 (2×) and 0.154 and 0.121 and 0.117 and 0.677 and 0.328 and 0.107 and 0.105 and 0.115 and 0.101 and 0.279 and 0.103 and 0.120; ELISA OD410, serum dilution 1/800 [2]: 0.124 and 0.106 (5×) and 0.137 and 0.123 and 0.125 and 0.454 and 0.105 and 0.219 and 0.099 and 0.097 and 0.273; ELISA OD410, serum dilution 1/1600 [2]: 0.120 (2×) and 0.118 (2×) and 0.119 and 0.590 and 0.104 and 0.171 and 0.105 and 0.108 and 0.103 and 0.096 and 0.223 and 0.110 (2×); Titer (anti-ARFP Ig ELISA) [2]: 0 (13×) and 100 and 50; ELISA OD410, serum dilution 1/50 [3]: 3.652 and 3.551 and 3.142 and 3.623 and 3.509 and 3.334 and 3.530 and 3.887 and 3.464 and 3.796 and 1.628 and 1.467 and 2.140 and 2.336 and 2.453; ELISA OD410, serum dilution 1/100 [3]: 3.642 and 2.683 and 3.700 and 2.841 and 3.563 and 3.625 and 3.306 and >4.000 (2×) and 3.808 and 1.093 and 1.941 and 2.487 and 1.264 and 2.058; ELISA OD410, serum dilution 1/200 [3]: 3.616 and 2.046 and 3.630 and 2.088 and 3.556 and 3.596 and 2.436 and 3.957 and 3.541 and >4.000 and 3.494 and 2.657 and 1.722 and 0.993 and 1.772; ELISA OD410, serum dilution 1/400 [3]: 3.569 and 1.681 and 3.296 and 1.522 and 3.465 and 3.590 and 1.859 and 3.799 and 3.582 and 3.896 and 3.238 and 2.397 and 1.929 and 0.725 and 1.607; ELISA OD410, serum dilution 1/800 [3]: 3.434 and 1.072 and 3.166 and 0.937 and 3.213 and 3.438 and 1.297 and 3.425 and 3.053 and 2.776 and 2.442 and 2.015 and 1.185 and 0.508 and 1.517; ELISA OD410, serum dilution 1/1600 [3]: 3.521 and 0.641 and 3.190 and 0.590 and 3.181 and 3.455 and 0.931 and 3.139 and 2.783 and 1.989 and 1.713 and 1.578 and 0.957 and 0.408 and 1.453; Titer (anti-ARFP Ig ELISA) [3]: >1600 (12×) and 800 (2×) and 200; ELISA OD410, serum dilution 1/50 [4]: 2.023 and 2.008 and 1.658 and 1.054 and 1.709 and 1.411 and 1.314 and 1.736 and 2.224 and 1.741 and 1.006 and 1.424 and 1.613 and 1.434 and 1.373; ELISA OD410, serum dilution 1/100 [4]: 2.028 and 1.542 and 1.830 and 1.646 and 1.839 and 1.829 and 1.483 and 2.139 and 1.904 and 1.714 and 1.872 and 1.790 and 1.912 and 1.489 and 1.880; ELISA OD410, serum dilution 1/200 [4]: 2.202 and 2.602 and 1.876 and 1.837 and 1.805 and 2.091 and 1.948 and 2.168 and 2.422 and 1.540 and 1.773 and 1.658 and 1.724 and 1.471 and 2.006; ELISA OD410, serum dilution 1/400 [4]: 2.376 and 2.547 and 1.889 and 1.913 and 1.776 and 2.225 and 1.925 and 2.356 and 2.456 and 1.266 and 1.783 and 1.907 and 1.312 and 1.223 and 1.919; ELISA OD410, serum dilution 1/800 [4]: 2.490 and 1.574 and 1.874 and 1.814 and 1.617 and 2.117 and 1.671 and 1.664 and 2.196 and 0.928 and 1.825 and 2.059 and 1.478 and 1.136 and 2.197; ELISA OD410, serum dilution 1/1600 [4]: 2.209 and 1.970 and 2.157 and 1.987 and 1.674 and 2.269 and 1.574 and 1.671 and 1.659 and 0.648 and 1.749 and 2.062 and 1.233 and 1.157 and 1.672; Titer (anti-ARFP Ig ELISA) [4]: >1600 (14×) and 800
